Test results reported in paper PMC5836512.

Assays:
[1] = molecular target: Cul1-Rbx1 (Homo sapiens) (UniProt Q13616); conditions: cited from earlier work
[2] = molecular target: ^3xFLAGpIκBα (UniProt P25963); assay: co-IP
Sequence of ^3xFLAGpIκBα (P25963 whole entry): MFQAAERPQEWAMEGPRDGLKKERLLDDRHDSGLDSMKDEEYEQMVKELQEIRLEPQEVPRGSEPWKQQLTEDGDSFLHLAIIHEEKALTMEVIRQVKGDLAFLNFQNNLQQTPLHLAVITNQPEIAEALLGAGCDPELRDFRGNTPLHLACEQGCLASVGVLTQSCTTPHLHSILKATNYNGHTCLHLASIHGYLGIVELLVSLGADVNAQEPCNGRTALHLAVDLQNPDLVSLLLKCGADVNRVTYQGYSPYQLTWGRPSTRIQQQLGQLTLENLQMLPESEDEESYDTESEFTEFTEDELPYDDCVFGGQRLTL

Sequence of Dcn1 (Q96GG9 whole entry): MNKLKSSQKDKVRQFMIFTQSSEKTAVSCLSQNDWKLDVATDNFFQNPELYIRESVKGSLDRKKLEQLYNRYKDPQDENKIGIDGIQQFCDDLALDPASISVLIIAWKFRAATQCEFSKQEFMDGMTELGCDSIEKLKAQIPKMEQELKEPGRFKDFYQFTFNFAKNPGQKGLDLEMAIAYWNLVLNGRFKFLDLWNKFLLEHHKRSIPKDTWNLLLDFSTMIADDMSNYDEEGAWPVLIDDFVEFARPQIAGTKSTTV

Substance	Kd [1]	koff [2]
Dcn1 (from UniProt Q96GG9)	1800 nM	–
β-TrCP (from UniProt Q9Y297 1-605) (natural protein)	–	3.3e-05 s⁻¹
